Measured values from patent US10471162B2, “Collagen targeted imaging probes” (priority 2014, dated 2019).

Assays:
[1] = tested on: pulmonary fibrosis, C57/BL6 mice (bleomycin or sham); experiment: in vivo; assay type: in vivo, mouse; conditions: male, C57/BL6, mouse, in vivo, iv, 2.5 h
Experimental: (§1) Pulmonary fibrosis was induced in 7-8-week-old male C57/BL6 mice by transtracheal administration of bleomycin (BM; 2.5 U/kg) in 50 μL of PBS under direct vision using a small cervical incision. Sham animals received only PBS. Animals were placed in a small-animal PET/SPECT/CT scanner (Triumph; TriFoil Imaging), equipped with inhalation anesthesia and heating pad. Each animal was anesthetized with isoflurane (4% for induction, 2-2.5% for maintenance in medical air) and body temperature was kept at 37-38° C. using a heating pad. The femoral vein was cannulated for intravenous delivery of the PET agent. Each mouse was injected with approximately 0.1 mL and 20-50 μCi of ^64Cu-CBP(n), 0.1 mL and 20-50 μCi of ^68Ga-CBP(n) and 0.1 mL and 10-20 μCi of Al^18F-CBP(n) in a 18 mM solution of sucrose in water, followed by saline flush. […] The lungs, blood, urine, heart, liver, left rectus femoris muscle, spleen, small intestine, kidneys, left femur bone were collected from all animals. The tissues were weighed, and radioactivity in each tissue was measured on a gamma counter (CobraII Auto gamma; Packard). The radioactivity in the lung was reported as percent injected dose per gram corrected with the average sham weight, which was calculated by dividing the counts of ^64Cu per average sham tissue weight in gram by the total of counts of the injected dose. The radioactivity in every other tissue was reported as percent injected dose per gram (% ID/g), which was calculated by dividing the counts of ^64Cu per gram of tissue by the total of counts of the injected dose. A p-value of less than 0.05 was considered significant. Uncertainties are expressed as the standard error of the mean.

in vivo [2] = assay type: in vivo, mouse; conditions: male, C57/BL6, mouse, in vivo, iv, total radioactivity, Biodistribution % ID/g
Experimental: as §1

in vivo [3] = experiment: in vivo; parameters: species or system mouse; conditions: male, C57Bl/6, mouse, iv, total radioactivity, Biodistribution % ID/g
Experimental: as §1, with “Adult male C57Bl/6 mice were administered a single intratracheal dose of low dose bleomycin at 0.1 U/kg (low dose), in a total volume of 50 μl sterile saline. FTY720” for “Pulmonary fibrosis”, “administered intraperitoneally to the” for “induced in 7-8-week-old male C57/BL6”, “at 1 mg/kg three times” for “by transtracheal administration of bleomycin (BM; 2.5 U/kg) in 50 μL of PBS under direct vision using”, “week.” for “small cervical incision. Sham animals received only PBS.”

in vivo [4] = experiment: in vivo; parameters: species or system mouse; conditions: male, C57Bl/6, mouse, iv, total radioactivity, Biodistribution % ID/lung
Experimental: (§2) Adult male C57Bl/6 mice were administered a single intratracheal dose of low dose bleomycin at 0.1 U/kg (low dose), in a total volume of 50 μl sterile saline. FTY720 was administered intraperitoneally to the mice at 1 mg/kg three times a week. To effect treatment in the low dose bleomycin, vascular leak model, the therapeutic murine antibody 3G9 (alpha-v-beta6 blocking antibody) and 1E6 (matched isotype control antibody) were used. Antibodies were injected into mice intraperitoneally three times week at a concentration of 1 mg/kg. All administrations of FTY720 and antibodies were initiated on day 0, ˜30 minutes before bleomycin challenge and continued throughout the duration of the experiments. […] The tissues were weighed, and radioactivity in each tissue was measured on a gamma counter (CobraII Auto gamma; Packard). The radioactivity in the lung was reported as percent injected dose per gram corrected with the average sham weight, which was calculated by dividing the counts of ^64Cu per average sham tissue weight in gram by the total of counts of the injected dose. The radioactivity in every other tissue was reported as percent injected dose per gram (% ID/g), which was calculated by dividing the counts of ^64Cu per gram of tissue by the total of counts of the injected dose. […] Uncertainties are expressed as the standard error of the mean.

[5] = tested on: pulmonary fibrosis, low dose bleomycin, vascular leak model; experiment: in vivo; parameters: species or system mouse; conditions: mouse
Experimental: as §2

With `CC(C)C[C@H](NC(=O)[C@@H]1CSSC[C@H](NC(=O)[C@H](Cc2c[nH]cn2)NC(=O)[C@H](Cc2c[nH]c3ccccc23)NC(=O)[C@H](CCCCNC(=O)CNC(=O)CCC(C(=O)O)N2CCN(CC(=O)O)CCN(CC(=O)O)CC2)NC(=O)CNC(=O)CCC(C(=O)O)N2CCN(CC(=O)O)CCN(CC(=O)O)CC2)C(=O)N[C@@H]([C@@H](C)O)C(=O)N[C@@H]([C@@H](C)O)C(=O)N[C@@H](CCCCNC(=O)CCC(C(=O)O)N2CCN(CC(=O)O)CCN(CC(=O)O)CC2)C(=O)N[C@@H](Cc2ccccc2)C(=O)N2CCC[C@H]2C(=O)N[C@@H](Cc2c[nH]cn2)C(=O)N[C@@H](Cc2c[nH]cn2)C(=O)N[C@@H](Cc2ccc(O)cc2)C(=O)N1)C(=O)N[C@@H](Cc1ccc(O)cc1)C(=O)N[C@@H](Cc1ccc(-c2ccccc2)cc1)C(N)=O` (single isomer, unassigned) [CBP8] as the molecule, how does the “Biodistribution % ID/g, blood” value [1] read?
The value was 0.569 ± 0.102 % ID/g.

And the “Biodistribution % ID/g, bone” value [1]?
Its value is 1.117 ± 0.347 % ID/g.

And the “Biodistribution % ID/g, heart” value [1]?
Its value is 0.340 ± 0.032 % ID/g.

What about the “Biodistribution % ID/g, kidney” value [1] of the same molecule?
The value was 41.063 ± 5.830 % ID/g.

And the “Biodistribution % ID/g, liver” value [1]?
The value was 1.189 ± 0.113 % ID/g.

And the “Biodistribution % ID/g, muscle” value [1]?
Its value is 0.927 ± 0.422 % ID/g.

And the “Biodistribution % ID/g, sm. intestine” value [1]?
The value was 0.830 ± 0.197 % ID/g.

What about the “Biodistribution % ID/g, spleen” value [1] of the same molecule?
The value was 0.659 ± 0.141 % ID/g.

What about the tissue uptake at 2.5 h (in vivo [2]; blood) of the same molecule?
Its tissue uptake at 2.5 h is 0.512 ± 0.181 %ID/g.

And the tissue uptake at 2.5 h (in vivo [2]; bone)?
The tissue uptake at 2.5 h was 1.11 ± 0.594 %ID/g.

And the tissue uptake at 2.5 h (in vivo [2]; heart)?
The tissue uptake at 2.5 h was 0.242 ± 0.059 %ID/g.

And the tissue uptake at 2.5 h (in vivo [2]; kidney)?
Its tissue uptake at 2.5 h is 30 ± 4.59 %ID/g.

And the tissue uptake at 2.5 h (in vivo [2]; liver)?
Its tissue uptake at 2.5 h is 0.95 ± 0.127 %ID/g.

And the tissue uptake at 2.5 h (in vivo [2]; muscle)?
Its tissue uptake at 2.5 h is 0.567 ± 0.247 %ID/g.

What about the tissue uptake at 2.5 h (in vivo [2]; sm. intestine) of the same molecule?
Its tissue uptake at 2.5 h is 0.42 ± 0.086 %ID/g.

What about the tissue uptake at 2.5 h (in vivo [2]; spleen) of the same molecule?
The tissue uptake at 2.5 h was 0.462 ± 0.047 %ID/g.

What about the tissue uptake at 2.5 h (in vivo [3]; blood) of the same molecule?
Its tissue uptake at 2.5 h is 0.347 ± 0.017 %ID/g.

What about the tissue uptake at 2.5 h (in vivo [3]; heart) of the same molecule?
Its tissue uptake at 2.5 h is 0.293 ± 0.024 %ID/g.

What about the tissue uptake at 2.5 h (in vivo [3]; kidney) of the same molecule?
The tissue uptake at 2.5 h was 42.7 ± 1.42 %ID/g.

And the tissue uptake at 2.5 h (in vivo [3]; liver)?
Its tissue uptake at 2.5 h is 1.44 ± 0.108 %ID/g.

And the tissue uptake at 2.5 h (in vivo [3]; small intest.)?
The tissue uptake at 2.5 h was 0.477 ± 0.052 %ID/g.

What about the tissue uptake at 2.5 h (in vivo [3]; spleen) of the same molecule?
The tissue uptake at 2.5 h was 0.47 ± 0.045 %ID/g.

And the tissue uptake dose at 2.5 h (in vivo [4])?
The tissue uptake dose at 2.5 h was 0.043 ± 0.001 %ID.

What about the “organ uptake between groups, except lungs, in words” value [5] of the same molecule?
Its value is “not significantly different”.
